Laboratory results taken from doi:10.1101/2024.04.22.590616.

T1: Csm2;Psy3;Shu1;Shu2 (Saccharomyces cerevisiae?;Saccharomyces …, UniProt P40465;Q12318;P38751;P38957 1-213;1-242;1-150;1-223, |||)
T1 sequence 1: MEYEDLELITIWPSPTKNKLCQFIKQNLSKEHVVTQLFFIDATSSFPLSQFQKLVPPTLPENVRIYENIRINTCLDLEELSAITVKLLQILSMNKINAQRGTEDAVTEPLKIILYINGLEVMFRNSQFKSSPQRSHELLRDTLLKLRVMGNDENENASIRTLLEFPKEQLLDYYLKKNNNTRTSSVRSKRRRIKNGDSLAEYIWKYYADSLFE
T1 sequence 2: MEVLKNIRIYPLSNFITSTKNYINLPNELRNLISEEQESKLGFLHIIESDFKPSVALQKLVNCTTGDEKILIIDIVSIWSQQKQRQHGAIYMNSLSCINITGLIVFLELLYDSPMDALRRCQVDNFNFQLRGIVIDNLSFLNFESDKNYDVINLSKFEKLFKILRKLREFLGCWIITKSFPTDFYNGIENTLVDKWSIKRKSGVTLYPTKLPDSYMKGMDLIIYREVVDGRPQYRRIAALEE
T1 sequence 3: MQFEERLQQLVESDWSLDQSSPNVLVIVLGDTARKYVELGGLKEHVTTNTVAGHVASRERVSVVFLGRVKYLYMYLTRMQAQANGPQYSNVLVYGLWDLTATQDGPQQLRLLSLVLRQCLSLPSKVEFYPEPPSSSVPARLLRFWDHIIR
T1 sequence 4: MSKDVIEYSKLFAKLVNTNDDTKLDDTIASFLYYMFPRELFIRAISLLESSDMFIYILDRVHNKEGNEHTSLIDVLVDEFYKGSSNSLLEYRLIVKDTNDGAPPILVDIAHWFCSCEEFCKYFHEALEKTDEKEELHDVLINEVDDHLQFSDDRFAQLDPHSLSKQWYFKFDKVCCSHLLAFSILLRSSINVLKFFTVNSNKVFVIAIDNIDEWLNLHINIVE

T2: Csm2;Psy3 (Saccharomyces cerevisiae?;Saccharomyces …, UniProt P40465;Q12318 1-213;1-242, |)
T2 sequence 1: T1 sequence 1
T2 sequence 2: T1 sequence 2

B1: ss60 (ssDNA)
DNA: TTTTTTTTTTTTTTTTTTTTTTTTTTTTTTCTTGACAAGCTTGCGCACTTAGGCCTCTAG
B2: Fork (10nt) (dsDNA)
DNA 1: ACTGCCCTTACAGCACAGCGGTTTTTTTTTT
DNA 2: TTTTTTTTTTCCGCTGTGCTGTAAGGGCAGT
B3: 3'-overhang (10nt) (dsDNA)
DNA 1: B2 DNA 1
DNA 2: CCGCTGTGCTGTAAGGGCAGT
B4: Fork (20nt) (dsDNA)
DNA 1: TTTTTTTTTTTTTTTTTTTTCTTGACAAGCTTGCGCACT
DNA 2: AGTGCGCAAGCTTGTCAAGGCACTTTTTTTTTTTTTTTT
B5: 5'-overhang (20nt) (dsDNA)
DNA 1: B4 DNA 1
DNA 2: AGTGCGCAAGCTTGTCAAG
B6: 3'-overhang (20nt) (dsDNA)
DNA 1: CTTGACAAGCTTGCGCACT
DNA 2: B4 DNA 2
B7: ds21 (dsDNA)
DNA 1: ACTTACAGCACAGCGGTTTTT
DNA 2: AAAAACCGCTGTGCTGTAAGT
B8: 3'-overhang (5nt) (dsDNA)
DNA 1: ACTGCCCTTACAGCACAGCGGTTTTT
DNA 2: CCGCTGTGCTGTAAGGGCAGT
B9: Fork (5nt) (dsDNA)
DNA 1: ACTGCCCTTACAGCACAGCGGTTTTT
DNA 2: TTTTTCCGCTGTGCTGTAAGGGCAGT
B10: ds26 (dsDNA)
DNA 1: ACTGCCCTTACAGCACAGCGGTTTTT
DNA 2: AAAAACCGCTGTGCTGTAAGGGCAGT
B11: ds39 (dsDNA)
DNA 1: B4 DNA 1
DNA 2: AGTGCGCAAGCTTGTCAAGAAAAAAAAAAAAAAAAAAAA

biological target: T1, Csm2;Psy3;Shu1;Shu2; assay: fluorescence polarization

Row | Binder | Kd [nM]
1 | ACTTACAGCACAGCGGTTTTT (ssDNA) [ss21] | 3430 ± 160
2 | B1 | 2370 ± 130
3 | B2 | 5840 ± 320
4 | B3 | 4500 ± 120
5 | ACTGCCCTTACAGCACAGCGGTTTTTTTTTT (ssDNA) [ss31] | 3310 ± 70
6 | B4 | 2060 ± 130
7 | B5 | 2440 ± 200
8 | B6 | 2820 ± 190
9 | TTTTTTTTTTTTTTTTTTTTCTTGACAAGCTTGCGCACT (ssDNA) [ss39] | 2760 ± 80
10 | B7 | 6210 ± 190
11 | B8 | 4860 ± 280
12 | B9 | 4080 ± 190
13 | ACTGCCCTTACAGCACAGCGGTTTTT (ssDNA) [ss26] | 3540 ± 240
14 | B10 | 7230 ± 140

biological target: T2, Csm2;Psy3; assay: fluorescence polarization

Row | Binder | Kd [nM]
15 | B4 | 1350 ± 60
16 | B5 | 1180 ± 100
17 | B11 | 1490 ± 130
18 | B6 | 1920 ± 280
19 | TTTTTTTTTTTTTTTTTTTTCTTGACAAGCTTGCGCACT (ssDNA) [ss39] | 1650 ± 180

biological target: T1, Csm2;Psy3;Shu1;Shu2; assay: fluorescence polarization; remark: another data set of the same source

Row | Binder | Kd [nM]
20 | B1 | 2370 ± 290
21 | B4 | 1030 ± 120
22 | B5 | 1150 ± 110
23 | B11 | 7410 ± 610
24 | TTTTTTTTTTTTTTTTTTTTCTTGACAAGCTTGCGCACT (ssDNA) [ss39] | 2770 ± 250

biological target: T2, Csm2;Psy3; assay: fluorescence polarization; remark: another data set of the same source

Row | Binder | Kd [nM]
25 | B4 | 750 ± 70
26 | B5 | 950 ± 120
27 | B11 | 1450 ± 130
28 | B6 | 1270 ± 120
29 | TTTTTTTTTTTTTTTTTTTTCTTGACAAGCTTGCGCACT (ssDNA) [ss39] | 1320 ± 120

biological target: T1, Csm2;Psy3;Shu1;Shu2; assay: fluorescence polarization; remark: another data set of the same source

Row | Binder | Kd [nM]
30 | B1 | 2400 ± 230
31 | B4 | 860 ± 70
32 | B5 | 1580 ± 160
33 | B11 | 6850 ± 490
34 | B6 | 2530 ± 170
35 | TTTTTTTTTTTTTTTTTTTTCTTGACAAGCTTGCGCACT (ssDNA) [ss39] | 3190 ± 270

biological target: T2, Csm2;Psy3; assay: fluorescence polarization; remark: another data set of the same source

Row | Binder | Kd [nM]
36 | B4 | 740 ± 50
37 | B5 | 430 ± 70
38 | B11 | 1540 ± 80
39 | B6 | 1600 ± 130
40 | TTTTTTTTTTTTTTTTTTTTCTTGACAAGCTTGCGCACT (ssDNA) [ss39] | 1490 ± 180

biological target: T1, Csm2;Psy3;Shu1;Shu2; assay: fluorescence polarization; remark: another data set of the same source

Row | Binder | Kd [nM]
41 | B11 | 7400 ± 510

biological target: T1, Csm2;Psy3;Shu1;Shu2; assay: fluorescence polarization; remark: another data set of the same source

Row | Binder | Kd [nM]
42 | B1 | 2010 ± 260
43 | B4 | 970 ± 100
44 | B5 | 2420 ± 220
45 | B11 | 5800 ± 400
46 | B6 | 2710 ± 220
47 | TTTTTTTTTTTTTTTTTTTTCTTGACAAGCTTGCGCACT (ssDNA) [ss39] | 2370 ± 220

biological target: T2, Csm2;Psy3; assay: fluorescence polarization; remark: another data set of the same source

Row | Binder | Kd [nM]
48 | B4 | 780 ± 50
49 | B5 | 760 ± 90
50 | B11 | 1460 ± 120
51 | B6 | 680 ± 50
52 | TTTTTTTTTTTTTTTTTTTTCTTGACAAGCTTGCGCACT (ssDNA) [ss39] | 1980 ± 200
